Here are results for 25 molecules from patent US20260209362A1 (VIB VZW, published 2026).

The experiment addresses T1, human IL-12Rβ2 (human, UniProt Q99665 24-862).
T1 construct: Expressed on HEK293T cells transiently transfected with a pcDNA3 plasmid (Genscript clone OHu21785); also called hIL-12RB2; IL-12 receptor β2 subunit
T1 sequence: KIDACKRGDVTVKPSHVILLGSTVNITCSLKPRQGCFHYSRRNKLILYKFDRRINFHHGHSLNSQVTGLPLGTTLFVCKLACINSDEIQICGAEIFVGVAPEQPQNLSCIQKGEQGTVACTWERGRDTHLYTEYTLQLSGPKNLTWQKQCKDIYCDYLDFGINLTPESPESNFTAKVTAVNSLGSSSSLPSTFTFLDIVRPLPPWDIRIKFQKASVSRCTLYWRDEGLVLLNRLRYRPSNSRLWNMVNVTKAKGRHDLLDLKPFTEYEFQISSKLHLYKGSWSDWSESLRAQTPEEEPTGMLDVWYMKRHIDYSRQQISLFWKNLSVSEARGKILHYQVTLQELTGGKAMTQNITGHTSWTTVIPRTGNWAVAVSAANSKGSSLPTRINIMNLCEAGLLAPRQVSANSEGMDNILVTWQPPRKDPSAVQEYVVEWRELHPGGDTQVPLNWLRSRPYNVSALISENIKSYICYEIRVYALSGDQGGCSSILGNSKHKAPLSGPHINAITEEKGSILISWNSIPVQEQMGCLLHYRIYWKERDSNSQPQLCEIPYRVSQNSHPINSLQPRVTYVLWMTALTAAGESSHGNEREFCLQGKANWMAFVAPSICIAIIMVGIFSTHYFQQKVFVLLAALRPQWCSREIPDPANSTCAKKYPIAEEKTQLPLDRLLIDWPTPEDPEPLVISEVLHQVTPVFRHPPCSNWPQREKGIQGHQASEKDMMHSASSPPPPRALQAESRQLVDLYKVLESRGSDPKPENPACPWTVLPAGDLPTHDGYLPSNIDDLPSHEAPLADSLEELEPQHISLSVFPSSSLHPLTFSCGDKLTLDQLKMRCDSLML
Nature of the experiment: flow cytometry, P.E. on transfected HEK293T cells.

B1: anti-IL-12Rβ2 VHH clone 3CRHS9 (VHH, not shown: small tags and cut ends)
VHH: QVQLQESGGGLVQPGGSLRLSCTASGSIVSIYNMDWYRQAPGNEREWVASITSSGDPYYDGSAKGRFTISRDNAKMTVYLQMNSLKPEDTAVYYCKVPTEKGNYWGQGTQVTVSS
notes: periplasmic extract
As to B1, the “% cells bound” value came out at 42.1% and the dMFI came out at 1040.

B2: anti-IL-12Rβ2 VHH clone 3CRHS100 (VHH, not shown: small tags and cut ends)
VHH: QVQLQESGGGLVQPGGSLRLSCTASGSIFSIYNMDWYRQAPGNQREWVASITPSGDPYYDDSAKGRFTISRDNAKMTVYLQMNSLKPEDTAVYYCKVPTEKGNYWGQGTQVTVSS
notes: periplasmic extract
With B2, the “% cells bound” value was determined as 43.2% and the dMFI is 1130.

B3: anti-IL-12Rβ2 VHH clone 3CRH27 (VHH, not shown: small tags and cut ends)
VHH: QVQLQESGGGLVQAGGSLRLSCTASGSIVSIYNMDWYRQAPGNEREWVASITSSGDPYYDGSAKGRFTISRDNAKMTVYLQMNSLKPEDTAVYYCKVPTEKGNYWGQGTQVTVSS
notes: periplasmic extract
For B3, the “% cells bound” value stood at 38.9% and the dMFI turned out to be 812.

B4: anti-IL-12Rβ2 VHH clone 3CRHS3 (VHH, not shown: small tags and cut ends)
VHH: QVQLQESGGGLVQPGGSLRLSCTASGSIFSIYNMDWYRQAPGNQREWVASITSSGDPYYDASVKGRFTISRDSAKMTVYLQMNSLKPEDTAVYYCKLPTEKGNYWGQGTQVTVSS
notes: periplasmic extract
As to B4, the “% cells bound” value came out at 47.2% and the dMFI came out at 1320.

B5: anti-IL-12Rβ2 VHH clone 3CRHS55 (VHH, not shown: small tags and cut ends)
VHH: QVQLQESGGGLVQAGGSLNLSCTASGSIISIYNMDWYRQAPGNQREWVASITSNGDSYYDGSAKGRFTISRDNAKMTVYLQMNSLKPEDTAVYYCKVPTENGNYWGQGTQVTVSS
notes: periplasmic extract
Take B5: the “% cells bound” value is 40.5% and the dMFI was found to be 961.

B6: anti-IL-12Rβ2 VHH clone 3CRH18 (VHH, not shown: small tags and cut ends)
VHH: QVQLQESGGGLVQPGGSLRLSCTASGNIVSIYNMDWYRQAPGNQREWVASITSSGDPYYDGSAKGRFTISRDNAKMTVYLQMNSLRPEDTAVYYCKVPTEKGNYWGQGTQVTVSS
notes: periplasmic extract
Turning to B6, the “% cells bound” value came out at 41.7% and the dMFI is 918.

B7: anti-IL-12Rβ2 VHH clone 3CRHS148 (VHH, not shown: small tags and cut ends)
VHH: QVQLQESGGGLVQPGGSLRLSCIASGSIFSIYNMDWYRQAPGNQREWVASITPSGDPYYDDSAKGRFTISRDNAKMTVYLQMNSLKPEDTAVYYCKVPTEKGNYWGQGTQVTVSS
notes: periplasmic extract
As for B7, the “% cells bound” value is 42% and the dMFI came out at 1030.

B8: anti-IL-12Rβ2 VHH clone 3CRHS54 (VHH, not shown: small tags and cut ends)
VHH: QVQLQESGGGLVQPGGSLRLSCTASGSIVSIYNMDWYRQAPGNEREWVASITSSGDPYYDGSAKGRFTISRDNAKMTVYLQMNSLEPEDTAVYFCKVPTEKGNYWGQGTQVTVSS
notes: periplasmic extract
B8: the “% cells bound” value came out at 41.5% and the dMFI was 970.

B9: anti-IL-12Rβ2 VHH clone 3CRH68 (VHH, not shown: small tags and cut ends)
VHH: QVQLQESGGGLVQPGGSLRLSCTASGSILSIYNMDWYRQVPGNQREWVASITPSGDPYYDGSVKGRFTISRDNAKMMVYLQMNSLKPEDTAVYYCKVPTEKGNYWGQGTQVTVSS
notes: periplasmic extract
With B9, the “% cells bound” value worked out at 38.2% and the dMFI was determined as 787.

B10: anti-IL-12Rβ2 VHH clone 2CRH33 (VHH, not shown: small tags and cut ends)
VHH: QVQLQESGGGSVQPGWSLRLTCAASGFTFSTSGMHWFRQAPGKGLEWVSSISSGGGDTYYTDSVKGRITISRDNAKNTLYLQLNDLKSEDTAVYYCSKDPSGATRGQGTQVTVSS
notes: periplasmic extract; also called 20363
For the molecule B10, the “% cells bound” value was 44.8% and the dMFI came to 1120.

B11: anti-IL-12Rβ2 VHH clone 2CRH60 (VHH, not shown: small tags and cut ends)
VHH: QVQLQESGGGSVQPGGSLRLTCAASGFTFSTSGMHWFRQAPGKGLEWVSSISSGGGDTYYTDSVKGRITISRDNAKNTLYLQLNDLKSEDTAVYYCSKDPSGATRGQGTQVTVSS
notes: periplasmic extract
In the case of B11, the “% cells bound” value came to 45.3% and the dMFI turned out to be 1100.

B12: anti-IL-12Rβ2 VHH clone 3CRHS1 (VHH, not shown: small tags and cut ends)
VHH: QVQLQESGGGSVQPGGSLRLSCAASGFTFSTSGMHWFRQAPGKGLEWVSSIGIIVDSSYYASSVKGRFTISRDNAKNTLYLQMNSLKSEDTAVYYCSKDPTGSSRGQGTQVTVSS
notes: periplasmic extract
As to B12, the “% cells bound” value was 44.5% and the dMFI was 1080.

B13: anti-IL-12Rβ2 VHH clone 3CRH45 (VHH, not shown: small tags and cut ends)
VHH: QVQLQESGGGLVQPGGSLRLSCAASGFTFSTFGMHWFRQAPGKGLEWVSSIGIIDDNSYYASSVKGRFTISRDNAKNTLYLQMNSLKSEDTAVYYCSKDTTGSSRGQGTQVTVSS
notes: periplasmic extract
Consider B13, for which the “% cells bound” value came to 37.6% and the dMFI came out at 742.

B14: anti-IL-12Rβ2 VHH clone 3CRH14 (VHH, not shown: small tags and cut ends)
VHH: QVQLQESGGGLVQPGGSLRLSCAASGFTFSTSGMHWFRQAPGKGLEWVSSIGIIVDSSYYADSVKGRFTISRDNAKNTLFLQMNSLKSEDTAVYYCSKDPTGSSRGQGTQVTVSS
notes: periplasmic extract
B14: the “% cells bound” value came out at 41.7% and the dMFI stood at 864.

B15: anti-IL-12Rβ2 VHH clone 3CRHS128 (VHH, not shown: small tags and cut ends)
VHH: QVQLQESGGGLVQPGGSLRLSCAASGFTFSTSGMHWFRQAPGKGLEWVSSIGATVDNSYYASSVKGRFTISRDNAKNTLYLLMNSLKSEDTAVYYCSKDPTGSSRGQGTQVTVSS
notes: periplasmic extract
Consider B15, for which the “% cells bound” value was 50.5% and the dMFI was 1480.

B16: anti-IL-12Rβ2 VHH clone 3CRHS109 (VHH, not shown: small tags and cut ends)
VHH: QVQLQESGGGLVQPGGSLRLSCAASGFTFSTSGMHWFRQAPGKGLEWVSSIGIIVDSSYYASSVKGRFTISRDNAKNTLYLHMNSLKSEDTAVYYCSKDVTGSSRGQGTQVTVSS
notes: periplasmic extract
In the case of B16, the “% cells bound” value is 46.5% and the dMFI stood at 1260.

B17: anti-IL-12Rβ2 VHH clone 2CRH80 (VHH, not shown: small tags and cut ends)
VHH: QVQLQESGGGLVQPGGSLRLSCAASGFTFSTSGMHWFRQAPGKGLEWVSSIGIIVGSSYYASSVKGRFTISRDNAKNTLYLHMNSLKSEDTAVYYCSKDVTGSSRGQGTQVTVSS
notes: periplasmic extract
Take B17: the “% cells bound” value was 40.1% and the dMFI came out at 809.

B18: anti-IL-12Rβ2 VHH clone 3CRH43 (VHH, not shown: small tags and cut ends)
VHH: QVQLQESGGGSVQPGGSLRLSCAASGFTFSTSGMHWFRQAPGKGLEWVSSIGIIVDSSYYASSVKGRFTISRDNAKNIVYLQMNSLKSEDTAVYYCSKDPTGSSRGQGTQVTVSS
notes: periplasmic extract
As to B18, the “% cells bound” value is 45.5% and the dMFI was 1160.

B19: anti-IL-12Rβ2 VHH clone 3CRH17 (VHH, not shown: small tags and cut ends)
VHH: QVQLQESGGGLVQAGGSLVLSCAASGSAALIFLMSWYRQAPGKQRELVAEVSRYGSTTYADSVEGRFTISRDNAKNIVDLQMNSLKPEDTAVYYCKADQYYGDSLRSSWGRGTQVTVSS
notes: periplasmic extract
On to B19, for which the “% cells bound” value turned out to be 32.5% and the dMFI stood at 583.

B20: anti-IL-12Rβ2 VHH clone 2CRH10 (VHH, not shown: small tags and cut ends)
VHH: QVQLQESGGGLVQAGGSLVLSCAASGSAALIFLMSWYRQAPGKQRELVAEVSRGGSTTYADSVEGRFHISRDNAKNIVDLQMNSLKPEDTAVYYCKADQNYGDSLRSSWGRGTQVTVSS
notes: periplasmic extract; also called 20362
Consider B20, for which the “% cells bound” value amounted to 30.8% and the dMFI came to 595.

B21: anti-IL-12Rβ2 VHH clone 3CRH5 (VHH, not shown: small tags and cut ends)
VHH: QVQLQESGGGLVQAGGSLVLSCAASGSAALIFLMSWYRQAPGKQRELVAEVSRGGSTTYADSVEGRFTISRDNAKNIVDLQMNSLKPEDTAVYYCKADQNYGDSLRSSWGQGTQVTVSS
notes: periplasmic extract
For B21, the “% cells bound” value amounted to 39.5% and the dMFI worked out at 835.

B22: anti-IL-12Rβ2 VHH clone 3CRH67 (VHH, not shown: small tags and cut ends)
VHH: QVQLQESGGGLVQAGGSLVLSCAASGSAALIFLMSWYRQAPGKQRELVAEVSRYGSTTYADSVEGRFTISRDNAKNIVDLQMNSLKPEDTAAYYCKADQYYGDSLRSSWGRGTQVTVSS
notes: periplasmic extract
Turning to B22, the “% cells bound” value came out at 35.1% and the dMFI was 645.

B23: anti-IL-12Rβ2 VHH clone 3CRH38 (VHH, not shown: small tags and cut ends)
VHH: QVQLQESGGGLVQAGGSLVLSCAASGSAALIFLMSWYRQAPGKQRELVAEVSRGGSTTYADSVEGRFTISRDNAKNIVDLQMNSLKPEDTAVYYCKADQNYGDSLRSSWGRGTQVTVSS
notes: periplasmic extract
For the molecule B23, the “% cells bound” value is 31.8% and the dMFI is 537.

B24: anti-IL-12Rβ2 VHH clone 2CRH73 (VHH, not shown: small tags and cut ends)
VHH: QVQLQESGGGLVQAGGSLRLTCTASGSAALIFLMSWYRQAPGKQRELVAEVSRRGSTTYADSVEGRFTISRDNAKNIVDLQMNSLKPEDTAVYYCKADQYYGDSLRSSWGRGTQVTVSS
notes: periplasmic extract
As to B24, the “% cells bound” value was determined as 36.7% and the dMFI was 707.

B25: anti-IL-12Rβ2 VHH clone 2CRH53 (VHH, not shown: small tags and cut ends)
VHH: QVQLQESGGGLVQAGGSLVLSCAASGSAALIFLMSWYRQAPGKQRELVAEVSRYGSTTYADSVEGRFTISRDNAKDIVDLQMNSLKPEDTAVYYCKADQYYGDSLRSSWGRGTQVTVSS
notes: periplasmic extract
As to B25, the “% cells bound” value is 35.3% and the dMFI amounted to 686.
